Data published in patent US20140114054A1 (UNIVERSITY OF MIYAZAKI, published 2014).

Target: human TfR on TfR-expressing cells (human, UniProt P02786 1-760)
Experiment: cell-based or functional assay

Sequence of human TfR on TfR-expressing cells (P02786 whole entry): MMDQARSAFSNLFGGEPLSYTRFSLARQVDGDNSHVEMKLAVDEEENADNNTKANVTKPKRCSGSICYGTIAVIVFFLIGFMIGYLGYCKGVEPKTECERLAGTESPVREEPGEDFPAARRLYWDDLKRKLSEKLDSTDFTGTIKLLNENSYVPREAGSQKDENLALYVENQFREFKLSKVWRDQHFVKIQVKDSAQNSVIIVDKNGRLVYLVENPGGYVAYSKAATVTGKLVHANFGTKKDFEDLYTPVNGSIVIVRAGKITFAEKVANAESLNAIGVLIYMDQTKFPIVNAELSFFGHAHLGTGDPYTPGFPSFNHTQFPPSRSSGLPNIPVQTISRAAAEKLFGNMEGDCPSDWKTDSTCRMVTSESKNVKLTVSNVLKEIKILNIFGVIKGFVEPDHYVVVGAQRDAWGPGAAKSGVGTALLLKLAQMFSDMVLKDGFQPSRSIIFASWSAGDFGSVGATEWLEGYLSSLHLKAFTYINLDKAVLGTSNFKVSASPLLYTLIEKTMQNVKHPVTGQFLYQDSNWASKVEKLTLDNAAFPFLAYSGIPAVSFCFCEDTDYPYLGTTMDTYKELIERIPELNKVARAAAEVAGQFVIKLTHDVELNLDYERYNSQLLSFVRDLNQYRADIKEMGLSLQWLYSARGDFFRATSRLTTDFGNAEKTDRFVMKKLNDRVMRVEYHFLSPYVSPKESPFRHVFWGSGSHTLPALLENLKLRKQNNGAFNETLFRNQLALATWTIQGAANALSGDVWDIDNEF

IC50 (ng/ml) of cell growth, A431: 36 ng/mL
IC50 (ng/ml) of cell growth, A549: 41 ng/mL
IC50 (ng/ml) of cell growth, BFTC905: 44 ng/mL
IC50 (ng/ml) of cell growth, DU145: 33 ng/mL
IC50 (ng/ml) of cell growth, HT29: 25 ng/mL
IC50 (ng/ml) of cell growth, K562: 50 ng/mL
IC50 (ng/ml) of cell growth, KLM1: 30 ng/mL
IC50 (ng/ml) of cell growth, MIAPaCa-2: 55 ng/mL
IC50 (ng/ml) of cell growth, MKN45: 26 ng/mL
IC50 (ng/ml) of cell growth, MT-2: 71 ng/mL
IC50 (ng/ml) of cell growth, NCI-H358: 37 ng/mL
IC50 (ng/ml) of cell growth, NCI-H1373: 127 ng/mL
IC50 (ng/ml) of cell growth, PK45-P: 100 ng/mL
IC50 (ng/ml) of cell growth, RAMOS: 8 ng/mL
B1: TfR006 IgG antibody (antibody, V domains shown)
VH: QVQLVQSGGGVVQPGRSLRLSCAASGFPFKSYGMHWVRQAPGKGLEWVAVISFDGSSKYYADSVKGRFTISRDNSKNTLYLQMNSLRGEDTAVYYCARDSNFWSGYYSPVDVWGQGTTVTVSS
VL: NFMLTQPHSVSESPGKTVTISCTRSSGSIASNSVQWYQQRPGSAPITVIYEDTQRPSGVPDRFSGSIDSSSNSASLTISGLQTEDEADYYCQSYDSAYHWVFGGGTKLAVL
